Format in all cases: cell-based
Experiment [1] has as its system human primary neuronal cultures. As to the kind of experiment: neuronal connectivity assay: human primary neuronal cultures fixed and stained for dendritic and synaptic markers. The procedure: FIGS. 3A-3E are experimental data showing that osteocrin promotes human neuronal connectivity. FIGS. 3A-3D are fluorescent images of primary human neurons fixed and immunostained with neuronal and synaptic markers, e.g., microtubule-associated protein 2 (MAP2), postsynaptic density protein-95 (PSD95) and synapsin after cultured for about 10 days in vitro with and without recombinant OSTN (˜50 ng/mL). […] FIG. 3E is a bar graph showing quantification results of excitatory synapse number in human neuronal cultures with increasing concentrations (˜0.5-˜50 ng/mL) of recombinant OSTN. In particular, the human neuronal cultures were treated with recombinant OSTN at a concentration of ˜0.5 ng/mL, ˜5 ng/mL, or ˜50 ng/mL. The data are represented as mean±SEM from n=5.
No role has previously been described for OSTN in nervous system development or particularly human nervous system development; however, OSTN has been reported to be secreted from bone-forming cells to promote the proliferation of bone precursors. In order to assess the roles of OSTN in human neuronal function, human primary neuronal cultures were treated with increasing concentrations of an osteocrin-inducing agent, e.g., but not limited to, a recombinant human OSTN protein. After about 6 days, samples were fixed and stained for neuronal markers, e.g., dendritic and/or synaptic markers, to examine effects on neuronal connectivity (FIGS. 3A-3D). Neuronal excitatory synaptic connections can be assayed by any methods known in the art, e.g., by quantifying the density of closely apposed puncta labeling pre- and post-synaptic markers along neuronal dendrites.

The next experiment deals with human neurons. As to the kind of experiment: neuronal survival assay: number of MAP2 positive cells. The settings on record: about 80,000 to about 130,000 cells/cm^2, where neighboring neurons could provide trophic support. Here is the method:
FIGS. 4A-4C are experimental data showing that osteocrin promotes human neuronal survival. FIGS. 4A-4B are fluorescent images showing culture of primary human neurons with or without recombinant OSTN. In FIGS. 4A-4B, primary human neurons were cultured for 10 days in vitro with and without recombinant OSTN (˜50 ng/ml), fixed and immunostained with neuronal marker MAP2 and nuclear marker DAPI. FIG. 4C is a quantitative bar graph showing the number of MAP2 positive neurons per measured area at DIV10 in human neuronal cultures with or without recombinant OSTN. The data are represented as mean±SEM. As used herein throughout the specification, the abbreviation “DIV” stands for Day In Vitro, i.e., the number of days neurons have grown in culture.
As presented herein, the inventors discovered OSTN as a human-specific activity-regulated secreted molecule. […] Neurons were grown, e.g., at a density of about 40,000 cells/cm^2, in the presence or absence of OSTN (e.g., ˜50 ng/ml) for a period of time, e.g., about 6 days between DIV4 to DIV10. After the period of time (e.g., about 6 days), samples were fixed and stained for dendritic and/or nuclear markers (FIGS. 4A-4B). Neuronal survival was assayed, for example, by quantifying the number of MAP2 positive cells after the neurons were cultured with or without OSTN for a pre-determined period of time (e.g., detected at DIV10). […]

The test system of another experiment is primary human neurons. The experiment in a line: human axonal growth assay in microfluidic chambers. Here is the method:
FIGS. 5A-5G are experimental data showing that osteocrin promotes human axonal growth. FIG. 5A is a schematic diagram of microfluidic chambers, e.g., for use in a human axonal growth assay. The bracket denotes the area where images were approximately acquired. In FIGS. 5B-5E, primary human neurons were cultured for 21 days in vitro in the microfluidic chamber with (FIG. 5C and FIG. 5E) and without (FIG. 5B and FIG. 5D) recombinant OSTN (˜100 ng/ml). FIGS. 5B-5C are brightfield images of axons imaged live by a bright-field microscope. FIGS. 5D-5E are fluorescent images of axons fixed and immunostained with axonal marker Neurofilament (NF). FIG. 5F is a quantitative bar graph showing axonal length extension of OSTN-treated neurons, normalized to the control experiment. FIG. 5G is a quantitative bar graph showing the number of MAP2-positive neurons per measured area inside the chamber. The data are represented as mean±SEM.
To assess the effect of OSTN on axonal outgrowth, a human axonal growth assay was developed by using microfluidic chambers (e.g., obtained from Xona Microfluidics, Temecula, Calif.) (FIG. 5A). In this assay, primary human neurons were seeded in the presence or absence of OSTN into the microfluidic chambers and cultured for a sufficient period of time to allow their axons grow through microchannels that were designed to be small enough to only allow axons, not dendrites, to pass through. For example, after about 21 days, axons were imaged both live (FIGS. 5B-5C) and after stained with an axonal marker, e.g., an anti-neurofilament antibody (FIGS. 5D-5E). Human axons grew slowly in the absence of OSTN and at DIV21 only few axonal processes were visible (FIGS. 5B and 5D). […] These findings shown that human-specific activity-regulated factor OSTN is a regulator of the axonal growth in human neurons.

For another experiment, the system named is osteocrin expression. As to the kind of experiment: induction of osteocrin expression in human cultures. The settings on record: addition to human cultures.
Setting [2] is: recombinant OSTN ~50 ng/mL, about 10 days in vitro.

B1: OSTN: recombinant human osteocrin protein; a secreted protein produced by cells of the osteoblast lineage (protein, listed as Homo sapiens)
chain: MLDWRLASAHFILAVTLTLWSSGKVLSVDVTTTEAFDSGVIDVQSTPTVREEKSATDLTAKLLLLDELVSLENDVIETKKKRSFSGFGSPLDRLSAGSVDHKGKQRKVVDHPKRRFGIPMDRIGRNRLSNSRG
As to B1, in experiment [1] (data not shown), the “dendritic density following OSTN treatment” value is reported as “Increases were also observed” and the “total dendritic length following OSTN treatment” value is “Increases were also observed”. In experiment [1] (setting [2]), the “expression of PSD95 and synapsin (immunostaining) compared to control neurons” value was “expressed higher levels of PSD95 and synapsins”; the “network of microtubules (MAP2 immunostaining) compared to control neurons” value was “formed a denser network of microtubules”. Also, the “increase in excitatory synapse density as compared to mock-treated controls” value in experiment [1] (recombinant human OSTN protein, increasing concentrations (~0.5-~50 ng/mL), after about 6 days, closely apposed pre- and post-synaptic puncta along dendrites) was “at least 3 fold”. In addition, the “significant increase in neuronal survival at standard or higher densities” value in the experiment with human neurons is “not observed”. The “number of neuronal cells (MAP2-positive) in the chambers with OSTN treatment” value with primary human neurons (recombinant OSTN ~100 ng/ml, DIV21) was “did not appear to change”. Moreover, the “axonal growth in the presence of OSTN” value with primary human neurons (recombinant OSTN ~100 ng/ml, about 21 days in vitro, imaged live and neurofilament stained) is “neurons grow axons of dramatic lengths and complexities”. Moreover, the “increase in axonal growth of human neurons as compared to neural cells without treatment of OSTN” value with primary human neurons (summary statement in the description) is given as “at least 2 fold”.

B2: BDNF: a neuronal activity-regulated secreted factor (protein, UniProt P23560 19-247, looked up)
Neurotrophic factor BDNF …: APMKEANIRGQGGLAYPGVRTHGTLESVNGPKAGSRGLTSLADTFEHVIEELLDEDQKVRPNEENNKDADLYTSRVMLSSQVPLEPPLLFLLEEYKNYLDAANMSMRVRRHSDPARRGELSVCDSISEWVTAADKKTAVDMSGGTVTVLEKVPVSKGQLKQYFYETKCNPMGYTKEGCRGIDKRHWNSQCRTTQSYVRALTMDSKKRIGWRFIRIDTSCVCTLTIKRGR
B2: the “effect on induction of osteocrin expression” value in the experiment on osteocrin expression is “does not have any significant effect”.
